Reference: US20250152742A1, “COMPOSITIONS AND METHODS FOR NEUROLOGICAL DISEASES” (Trames Bio, Inc., priority 2022, published 2025)

Test system: engineered chimeric receptor SEQ ID NO: 33 and its mutants (human α7-nAChR ligand binding domain / human GlyRα1 ion pore domain) in Lenti-X 293T cells
Assay: YFP fluorescence quenching anion reporter plate reader assay (percent quench, EC50)
Assay type: cell-based
Settings: for YFP fluorescence quenching using CNL001 (percent quench): receptor named in row; for YFP fluorescence quenching using Varenicline, 3 nM var: ligand Varenicline 3 nM; for YFP fluorescence quenching using Varenicline, 30 nM var: ligand Varenicline 30 nM; for YFP fluorescence quenching using Varenicline, 300 nM var: ligand Varenicline 300 nM; for YFP fluorescence quenching using Varenicline, 500 nM var: ligand Varenicline 500 nM; for YFP fluorescence quenching using Varenicline, 1 uM var: ligand Varenicline 1 uM
How it was run: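 Percent quench compares mean YFP signal over the final 10 s with the 15 s baseline before ligand, added in iodide-containing extracellular solution (pH 7.2). Cells were LX293T carrying a YFP anion reporter, transiently transfected with the channel construct; plates were preincubated 30 min at 37 °C.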

B1: CODA342: engineered receptor: L131R in SEQ ID NO: 33 (protein)
chain: MRCSPGGVWLALAASLLHVSLQGEFQRKLYKELVKNYNPLERPVANDSQPLTVYFSLSLLQIMDVDEKNQVLTTNIWLQMSWTDHYLQWNVSEYPGVKTVRFPDGQIWKPDILLYNSADERFDATFHTNVRVNSSGHCQYLPPGIFKSSCPMDLKNFPMDVQTCKLKFGSWSYGGWSLDLQMQEADISGYIPNGEWDLVGIPGKRSERFYECCKEPYPDVTFTVTMRRRMGYYLIQMYIPSLLIVILSWISFWINMDAAPARVGLGITTVLTMTTQSSGSRASLPKVSYVKAIDIWMAVCLLFVFSALLEYAAVNFVSRQHKELLRFRRKRRHHKSPMLNLFQEDEAGEGRFNFSAYGMGPACLQAKDGISVKGANNSNTTNPPPAPSKSPEEMRKLFIQRAKKIDKISRIGFPMAFLIFNMFYWIIYKIVRREDVHNQ
modifications: synthetic sequence of chimeric LGIC
Q: Which “YFP fluorescence quenching using CNL001 (percent quench)” value (1 nM CNL001, first column so headed) does the source give for B1 here?
A: The value was 23.532%.

Q: And the “YFP fluorescence quenching using CNL001 (percent quench)” value (1 nM CNL001, second column so headed)?
A: Its value is 26.054%.

Q: What about the “YFP fluorescence quenching using TC-5619/Bradanicline (percent quench)” value (1 nM brd (TC-5619/Bradanicline)) of the same molecule?
A: Its value is −7.83%.

Q: What about the “YFP fluorescence quenching using TC-5619/Bradanicline (percent quench)” value (3 nM brd (TC-5619/Bradanicline)) of the same molecule?
A: The value was −12.89%.

Q: What about the “YFP fluorescence quenching using CNL001 (percent quench)” value (10 nM CNL001, first column so headed) of the same molecule?
A: The value was 43.69%.

Q: And the “YFP fluorescence quenching using CNL001 (percent quench)” value (10 nM CNL001, second column so headed)?
A: Its value is 54.016%.

Q: What about the “YFP fluorescence quenching using TC-5619/Bradanicline (percent quench)” value (10 nM brd (TC-5619/Bradanicline)) of the same molecule?
A: The value was −10.47%.

Q: And the “YFP fluorescence quenching using TC-6683 (percent quench)” value (30 nM TC-6683)?
A: The value was −16.26%.

Q: And the “YFP fluorescence quenching using TC-5619/Bradanicline (percent quench)” value (30 nM brd (TC-5619/Bradanicline))?
A: The value was 59.48%.

Q: And the “YFP fluorescence quenching using CNL001 (percent quench)” value (50 nM CNL001, first column so headed)?
A: Its value is 59.955%.

Q: What about the “YFP fluorescence quenching using CNL001 (percent quench)” value (50 nM CNL001, second column so headed) of the same molecule?
A: The value was 56.091%.

Q: And the “YFP fluorescence quenching using ABT-126 (percent quench)” value (50 nM abt (ABT-126))?
A: Its value is −18.14%.

Q: And the “YFP fluorescence quenching using CNL001 (percent quench)” value (100 nM CNL001, first column so headed)?
A: The value was 64.536%.

Q: What about the “YFP fluorescence quenching using CNL001 (percent quench)” value (100 nM CNL001, second column so headed) of the same molecule?
A: Its value is 58.987%.

Q: What about the “YFP fluorescence quenching (percent quench)” value (100 nM CNL002) of the same molecule?
A: The value was −17.2%.

Q: What about the “YFP fluorescence quenching using ABT-126 (percent quench)” value (100 nM abt (ABT-126)) of the same molecule?
A: The value was −18.14%.

Q: What about the “YFP fluorescence quenching using AZD-0328 (percent quench)” value (100 nM azd0328) of the same molecule?
A: The value was 1.79%.

Q: And the “YFP fluorescence quenching using TC-5619/Bradanicline (percent quench)” value (100 nM brd (TC-5619/Bradanicline))?
A: Its value is 70.19%.

Q: And the “YFP fluorescence quenching using TC-6683 (percent quench)” value (300 nM TC-6683)?
A: Its value is −22.45%.

Q: What about the “YFP fluorescence quenching using ABT-126 (percent quench)” value (300 nM abt (ABT-126)) of the same molecule?
A: The value was −0.81%.

Q: And the “YFP fluorescence quenching using AZD-0328 (percent quench)” value (300 nM azd0328)?
A: Its value is 66.58%.

Q: What about the “YFP fluorescence quenching using TC-5619/Bradanicline (percent quench)” value (300 nM brd (TC-5619/Bradanicline)) of the same molecule?
A: Its value is 75.11%.

Q: What about the “YFP fluorescence quenching using ABT-126 (percent quench)” value (500 nM abt (ABT-126)) of the same molecule?
A: The value was 23.29%.

Q: What about the “YFP fluorescence quenching using CNL001 (percent quench)” value (1 uM CNL001, first column so headed) of the same molecule?
A: Its value is 65.987%.

Q: And the “YFP fluorescence quenching using CNL001 (percent quench)” value (1 uM CNL001, second column so headed)?
A: The value was 64.312%.

Q: What about the “YFP fluorescence quenching (percent quench)” value (1 uM CNL002) of the same molecule?
A: Its value is 8.12%.

Q: What about the “YFP fluorescence quenching using ABT-126 (percent quench)” value (1 uM abt (ABT-126)) of the same molecule?
A: The value was 45.76%.

Q: What about the “YFP fluorescence quenching using TC-5619/Bradanicline (percent quench)” value (1 uM brd (TC-5619/Bradanicline)) of the same molecule?
A: The value was 77.42%.

Q: What about the “YFP fluorescence quenching using TC-6683 (percent quench)” value (3 uM TC-6683) of the same molecule?
A: The value was −13.48%.

Q: What about the “YFP fluorescence quenching using ABT-126 (percent quench)” value (3 uM abt (ABT-126)) of the same molecule?
A: The value was 53.03%.

Q: And the “YFP fluorescence quenching using ABT-126 (percent quench)” value (10 uM abt (ABT-126))?
A: The value was 64.08%.

Q: What about the “YFP fluorescence quenching (percent quench)” value (10 uM ach (acetylcholine)) of the same molecule?
A: The value was −2.57%.

Q: What about the “YFP fluorescence quenching (percent quench)” value (30 uM CNL002) of the same molecule?
A: Its value is 57.24%.

Q: And the “YFP fluorescence quenching using TC-6683 (percent quench)” value (30 uM TC-6683)?
A: The value was −12.68%.

Q: What about the “YFP fluorescence quenching using ABT-126 (percent quench)” value (30 uM abt (ABT-126)) of the same molecule?
A: Its value is 71.98%.

Q: And the “YFP fluorescence quenching using AZD-0328 (percent quench)” value (30 uM azd0328)?
A: The value was 80.55%.

Q: And the “YFP fluorescence quenching using ABT-126 (percent quench)” value (50 uM abt (ABT-126))?
A: The value was 73.98%.

Q: What about the “YFP fluorescence quenching using TC-6683 (percent quench)” value (100 uM TC-6683) of the same molecule?
A: The value was −10.33%.

Q: And the “YFP fluorescence quenching using ABT-126 (percent quench)” value (100 uM abt (ABT-126))?
A: Its value is 73.51%.

Q: And the “YFP fluorescence quenching (percent quench)” value (100 uM ach (acetylcholine))?
A: Its value is −3.18%.

Q: What about the “YFP fluorescence quenching (percent quench)” value (1 mM ach (acetylcholine)) of the same molecule?
A: The value was 78.98%.

Q: What about the “YFP fluorescence quenching (percent quench)” value (3 mM ach (acetylcholine)) of the same molecule?
A: The value was 75.75%.

Q: What about the “YFP fluorescence quenching using Facinicline, 30 nM fac” value (ligand Facinicline 30 nM) of the same molecule?
A: The value was −6.2.

Q: And the “YFP fluorescence quenching using Facinicline, 300 nM fac” value (ligand Facinicline 300 nM)?
A: Its value is 76.75.

Q: What about the “YFP fluorescence quenching using Facinicline, 10 uM fac” value (ligand Facinicline 10 uM) of the same molecule?
A: The value was 82.16.

Q: What about the “YFP fluorescence quenching using Facinicline, 30 uM fac” value (ligand Facinicline 30 uM) of the same molecule?
A: Its value is 81.71.

Q: And the “YFP fluorescence quenching using TC-6987, 1 uM tc6987” value (ligand TC-6987 1 uM)?
A: The value was 2.51.

Q: And the “YFP fluorescence quenching using TC-6987, 10 uM tc6987” value (ligand TC-6987 10 uM)?
A: The value was 46.22.

Q: And the “YFP fluorescence quenching using TC-6987, 500 uM tc6987” value (ligand TC-6987 500 uM)?
A: Its value is 68.33.

Q: And the “YFP fluorescence quenching using Varenicline, 3 nM var” value (first column)?
A: Its value is 0.271.

Q: And the “YFP fluorescence quenching using Varenicline, 3 nM var” value (second column)?
A: Its value is −3.613.

Q: What about the “YFP fluorescence quenching using Varenicline, 30 nM var” value (first column) of the same molecule?
A: Its value is −4.935.

Q: And the “YFP fluorescence quenching using Varenicline, 30 nM var” value (second column)?
A: The value was −4.363.

Q: What about the “YFP fluorescence quenching using Varenicline, 300 nM var” value (first column) of the same molecule?
A: The value was 0.282.

Q: What about the “YFP fluorescence quenching using Varenicline, 300 nM var” value (second column) of the same molecule?
A: The value was 2.32.

Q: What about the “YFP fluorescence quenching using Varenicline, 500 nM var” value (first column) of the same molecule?
A: Its value is 23.777.

Q: And the “YFP fluorescence quenching using Varenicline, 500 nM var” value (second column)?
A: The value was 18.376.

Q: What about the “YFP fluorescence quenching using Varenicline, 1 uM var” value (first column) of the same molecule?
A: Its value is 66.17.

Q: What about the “YFP fluorescence quenching using Varenicline, 1 uM var” value (second column) of the same molecule?
A: Its value is 66.088.
